Measured values published in US20230052369A1 (Zymeworks, published 2023).

T1: Cyno 4-1BB-Flag, on HEK293-6e cells (Cynomolgus (Macaca fascicularis))
T1 construct: also called Cynomolgus 4-1BB; CL#11070
T1 chain: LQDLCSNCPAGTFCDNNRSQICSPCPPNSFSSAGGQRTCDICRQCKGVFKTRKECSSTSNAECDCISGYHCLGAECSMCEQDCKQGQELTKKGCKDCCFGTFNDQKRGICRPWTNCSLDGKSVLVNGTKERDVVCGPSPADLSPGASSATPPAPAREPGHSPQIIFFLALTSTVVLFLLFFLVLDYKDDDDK


Tests used:
[1] = biological target: T2, 4-1BB human (human 4-1BB ECD-TEV-IgG1 hinge-CH2-CH3-10x His) (human); test: ELISA, coated 4-1BB-Fc
T2 construct: 4-1BB residues 24-186 fused to TEV site, IgG1 Fc and His tag; the entry is the whole fusion; also called soluble human 4-1BB-Fc
T2 sequence (chain, as listed by the source limits assumed): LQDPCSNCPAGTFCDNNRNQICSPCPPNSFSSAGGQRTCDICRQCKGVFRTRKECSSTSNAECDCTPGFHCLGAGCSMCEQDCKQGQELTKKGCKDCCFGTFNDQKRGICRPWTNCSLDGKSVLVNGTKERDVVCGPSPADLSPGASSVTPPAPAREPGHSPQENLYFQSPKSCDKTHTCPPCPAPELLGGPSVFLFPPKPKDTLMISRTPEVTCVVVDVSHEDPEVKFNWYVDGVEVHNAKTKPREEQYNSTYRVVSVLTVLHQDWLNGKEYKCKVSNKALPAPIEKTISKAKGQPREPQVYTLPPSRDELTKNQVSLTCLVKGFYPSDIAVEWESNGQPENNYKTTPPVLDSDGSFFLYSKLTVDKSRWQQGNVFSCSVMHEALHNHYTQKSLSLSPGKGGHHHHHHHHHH

[2] = biological target: T3, truncated human 4-1BB domain 3 and 4 only construct (residues 86-255), on cells (human, UniProt Q07011 86-255); test: flow cytometry, transfected 293E6 cells
T3 construct: on 293E6 cells co-transfected with mouse 4-1BB; also called 4-1BB domain 3 and 4 only construct (amino acids 86-255)
T3 sequence (Q07011 86-255): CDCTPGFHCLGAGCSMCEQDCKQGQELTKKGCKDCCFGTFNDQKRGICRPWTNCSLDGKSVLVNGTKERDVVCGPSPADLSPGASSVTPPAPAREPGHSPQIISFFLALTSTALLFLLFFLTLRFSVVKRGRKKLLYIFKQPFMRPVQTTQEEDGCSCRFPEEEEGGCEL

[3] = biological target: T1, Cyno 4-1BB-Flag, on HEK293-6e cells; test: CellInsight cell binding, transfected HEK293-6e
[4] = biological target: T4, Mouse 4-1BB-Flag, on HEK293-6e cells (Mouse (Mus musculus), UniProt P20334 24-208); test: CellInsight cell binding, transfected HEK293-6e
T4 construct: also called CL#11063
T4 sequence (P20334 other isoform, or with tags, fused parts or gaps limits assumed): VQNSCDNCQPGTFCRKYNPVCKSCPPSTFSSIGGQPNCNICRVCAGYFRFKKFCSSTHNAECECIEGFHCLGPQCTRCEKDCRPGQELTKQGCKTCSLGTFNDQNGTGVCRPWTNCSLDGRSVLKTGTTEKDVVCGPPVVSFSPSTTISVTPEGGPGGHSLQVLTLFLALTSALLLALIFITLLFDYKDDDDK

[5] = biological target: T5, 4-1BB dog (dog 4-1BB ECD-TEV-IgG1 Fc-10x His) (dog); test: ELISA, coated 4-1BB-Fc
T5 construct: Uniprot E2R1R9 residues 24-186 fused to TEV site, IgG1 Fc and His tag
T5 sequence (chain, as listed by the source limits assumed): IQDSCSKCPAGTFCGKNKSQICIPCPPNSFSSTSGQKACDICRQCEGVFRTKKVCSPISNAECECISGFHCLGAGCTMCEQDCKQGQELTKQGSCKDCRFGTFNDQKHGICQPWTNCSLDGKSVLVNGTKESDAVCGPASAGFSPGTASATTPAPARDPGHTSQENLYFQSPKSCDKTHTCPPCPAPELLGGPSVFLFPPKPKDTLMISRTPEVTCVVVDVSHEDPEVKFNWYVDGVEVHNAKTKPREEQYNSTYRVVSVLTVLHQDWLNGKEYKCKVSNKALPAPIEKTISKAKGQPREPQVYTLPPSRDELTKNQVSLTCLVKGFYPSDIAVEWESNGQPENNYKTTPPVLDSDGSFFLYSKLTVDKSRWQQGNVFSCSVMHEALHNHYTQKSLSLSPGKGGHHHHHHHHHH

[6] = biological target: T6, 4-1BB dog-human (human-dog chimeric 4-1BB ECD-TEV-IgG1 Fc-10x His) (human with dog residues in domain 4); test: ELISA, coated 4-1BB-Fc
T6 construct: Human 4-1BB ECD with K115Q, C121R, R134Q, R154S and V156A (already in the entry); also called dog-human chimeric 4-1BB; hybrid 4-1BB
T6 sequence (chain, as listed by the source mutant limits assumed): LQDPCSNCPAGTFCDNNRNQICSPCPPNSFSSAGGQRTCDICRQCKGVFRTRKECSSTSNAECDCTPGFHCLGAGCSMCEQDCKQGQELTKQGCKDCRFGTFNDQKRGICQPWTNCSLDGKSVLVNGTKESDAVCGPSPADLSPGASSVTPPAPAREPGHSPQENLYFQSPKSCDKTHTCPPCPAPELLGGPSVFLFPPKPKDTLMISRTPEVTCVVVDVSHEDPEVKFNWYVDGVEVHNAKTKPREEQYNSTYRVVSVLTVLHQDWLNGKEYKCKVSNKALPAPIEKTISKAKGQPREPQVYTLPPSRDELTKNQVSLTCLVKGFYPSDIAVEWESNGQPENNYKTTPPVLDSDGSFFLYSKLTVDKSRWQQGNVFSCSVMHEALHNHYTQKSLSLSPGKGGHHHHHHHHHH

[7] = biological target: T7, purified human monomeric 4-1BB (human, UniProt Q07011 24-186); test: SPR, mean n=3;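 further: antibodies captured on anti-human Fc chip, 4-1BB injected as five-point two-fold series from 40 nM by single-cycle kinetics at 25 °C, sensorgrams fitted to 1:1 Langmuir model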
T7 construct: the assay used the 4-1BB part released by Factor Xa with the Fc removed; also called h4-1BB; human 4-1BB
T7 sequence (Q07011 other isoform, or with tags, fused parts or gaps limits assumed): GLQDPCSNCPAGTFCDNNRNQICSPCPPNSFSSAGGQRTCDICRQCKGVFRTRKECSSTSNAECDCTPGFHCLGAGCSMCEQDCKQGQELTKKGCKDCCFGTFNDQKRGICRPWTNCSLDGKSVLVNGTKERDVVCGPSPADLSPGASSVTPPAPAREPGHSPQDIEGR

[8] = biological target: T8, human 4-1BB, full-length, expressed on cells (human, UniProt Q07011 24-255); test: flow cytometry, Jurkat-4-1BB
T8 construct: also called CD137; TNFRSF9
T8 sequence (Q07011 24-255): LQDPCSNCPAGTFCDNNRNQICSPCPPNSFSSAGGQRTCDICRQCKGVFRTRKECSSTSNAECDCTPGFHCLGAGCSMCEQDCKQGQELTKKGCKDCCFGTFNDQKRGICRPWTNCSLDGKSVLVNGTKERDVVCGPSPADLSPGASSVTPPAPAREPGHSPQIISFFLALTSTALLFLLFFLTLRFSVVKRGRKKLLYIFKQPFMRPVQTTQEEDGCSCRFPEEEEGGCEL

[9] = biological target: T8, human 4-1BB, full-length, expressed on …; test: cell-based or functional assay

binding result [1]	binding result [3]	binding result [4]	EC50 (pM), 4-1BB NF-kB-luciferase Jurkat reporter in co-culture with SKOV3 [9]	Max activity (RLU), 4-1BB NF-kB-luciferase Jurkat reporter [9]	Binder	further results
–	–	–	2620 pM	27900 RLU	v16601 (bispecific antibody) VH: EVQLVQSGAEVKKPGESLRISCKGSGYSFSTYWISWVRQMPGKGLEWMGKIYPGDSYTNYSPSFQGQVTISADKSISTAYLQWSSLKASDTAMYYCARGYGIFDYWGQGTLVTVSS VL: SYELTQPPSVSVSPGQTASITCSGDNIGDQYAHWYQQKPGQSPVLVIYQDKNRPSGIPERFSGSNSGNTATLTISGTQAMDEADYYCATYTGFGSLAVFGGGTKLTVL scFv: not shown	–
–	–	–	401 pM	92000 RLU	v16605 (bispecific antibody) VH: EVQLVQSGAEVKKPGESLRISCKGSGYSFSTYWISWVRQMPGKGLEWMGKIYPGDSYTNYSPSFQGQVTISADKSISTAYLQWSSLKASDTAMYYCARGYGIFDYWGQGTLVTVSS VL: SYELTQPPSVSVSPGQTASITCSGDNIGDQYAHWYQQKPGQSPVLVIYQDKNRPSGIPERFSGSNSGNTATLTISGTQAMDEADYYCATYTGFGSLAVFGGGTKLTVL scFv: not shown	–
–	–	–	56.9 pM	80900 RLU	v16675 (bispecific antibody, human IgG1, lambda, L234A L235A) heavy 1: not shown heavy 2: EVQLVQSGAEVKKPGESLRISCKGSGYSFSTYWISWVRQMPGKGLEWMGKIYPGDSYTNYSPSFQGQVTISADKSISTAYLQWSSLKASDTAMYYCARGYGIFDYWGQGTLVTVSSASTKGPSVFPLAPSSKSTSGGTAALGCLVKDYFPEPVTVSWNSGALTSGVHTFPAVLQSSGLYSLSSVVTVPSSSLGTQTYICNVNHKPSNTKVDKKVEPKSCDKTHTCPPCPAPELLGGPSVFLFPPKPKDTLMISRTPEVTCVVVDVSHEDPEVKFNWYVDGVEVHNAKTKPREEQYNSTYRVVSVLTVLHQDWLNGKEYKCKVSNKALPAPIEKTISKAKGQPREPQVYVYPPSRDELTKNQVSLTCLVKGFYPSDIAVEWESNGQPENNYKTTPPVLDSDGSFALVSKLTVDKSRWQQGNVFSCSVMHEALHNHYTQKSLSLSPG light: SYELTQPPSVSVSPGQTASITCSGDNIGDQYAHWYQQKPGQSPVLVIYQDKNRPSGIPERFSGSNSGNTATLTISGTQAMDEADYYCATYTGFGSLAVFGGGTKLTVLGQPKAAPSVTLFPPSSEELQANKATLVCLISDFYPGAVTVAWKADSSPVKAGVETTTPSKQSNNKYAASSYLSLTPEQWKSHRSYSCQVTHEGSTVEKTVAPTECS	–
–	–	–	30.1 pM	131000 RLU	v16679 (bispecific antibody, human IgG1, lambda, L234A L235A) heavy 1: not shown heavy 2: EVQLVQSGAEVKKPGESLRISCKGSGYSFSTYWISWVRQMPGKGLEWMGKIYPGDSYTNYSPSFQGQVTISADKSISTAYLQWSSLKASDTAMYYCARGYGIFDYWGQGTLVTVSSASTKGPSVFPLAPSSKSTSGGTAALGCLVKDYFPEPVTVSWNSGALTSGVHTFPAVLQSSGLYSLSSVVTVPSSSLGTQTYICNVNHKPSNTKVDKKVEPKSCDKTHTCPPCPAPELLGGPSVFLFPPKPKDTLMISRTPEVTCVVVDVSHEDPEVKFNWYVDGVEVHNAKTKPREEQYNSTYRVVSVLTVLHQDWLNGKEYKCKVSNKALPAPIEKTISKAKGQPREPQVYVYPPSRDELTKNQVSLTCLVKGFYPSDIAVEWESNGQPENNYKTTPPVLDSDGSFALVSKLTVDKSRWQQGNVFSCSVMHEALHNHYTQKSLSLSPG light: SYELTQPPSVSVSPGQTASITCSGDNIGDQYAHWYQQKPGQSPVLVIYQDKNRPSGIPERFSGSNSGNTATLTISGTQAMDEADYYCATYTGFGSLAVFGGGTKLTVLGQPKAAPSVTLFPPSSEELQANKATLVCLISDFYPGAVTVAWKADSSPVKAGVETTTPSKQSNNKYAASSYLSLTPEQWKSHRSYSCQVTHEGSTVEKTVAPTECS	–

The next lines start with the binder.

Binder	binding result [1]	binding result [3]	binding result [4]	EC50 (pM), 4-1BB NF-kB-luciferase Jurkat reporter in co-culture with SKOV3 [9]	Max activity (RLU), 4-1BB NF-kB-luciferase Jurkat reporter [9]	further results
v20027 (antibody, human IgG1, kappa, L234A L235A, V domains shown, Mouse-human chimera; also called 3D7) VH: QVQLQQPGAELVRPGASVKLSCKASGYTFTSYWINWVKQRPGQGLEWIGNIYPSDNYTNYNQKFKDKATLTVDKSSSTAYMQLSSPTSEDSAVYYCTRGGGIYYENYFDYWGQGTTLTVSS VL: QIVLTQSPAIMSASPGEKVTMTCSASSSVSYMHWYQQKSGTSPKRWVYDTSKLASGVPARFSGSGSGTSYSLTISSMEAEDVATYYCQQWSSNPPTFGGGTKLEIKR	no binding	–	–	–	–	–
v20022 (antibody, human IgG1, kappa, L234A L235A, V domains shown, Mouse-human chimera; also called 1C8; 1C8 mouse-human parental chimera) VH: QVQLKESGPGLVAPSQSLSITCTVSGFSLTTYAISWVRQPPGKGLEWLGIIWPGGGTNYNSALKSRLSISKDNSRSQVFLKMNSLQTDDTARYYCARGAGTWYFDVWGAGTTVTVSS VL: DIQMTQSTSSLSASVGDRVTISCSASQGISNYLNWYQQKPDGTVKLLIYYTSSLHSGVPSRFSGSGSGTDYSLTISNLEPEDIATYYCQQYSKFPWTFGGGTKLEIKR	binds	binds	no binding	–	–	binding result [2]: no binding (tested: 2.5 µg of antibody); binding result [5]: no binding; binding result [6]: binds; Kd [7]: 582 nM; EC50 [8]: 17.3 nM
v20023 (antibody, human IgG1, kappa, L234A L235A, V domains shown, Mouse-human chimera; also called 1G1; 1G1 mouse-human parental chimera) VH: EVQLVESGGGLVKPGGSRKLSCAASGFTFSEFGMHWVRQAPDKGLKWVAYISSGGSTIYYADTVKGRFTISRDNAKNTLFLQMTSLRSEDTAMYYCARDWVDYWGQGTTLTVSS VL: NIVMTQSPKSMSMSVGERVTLSCKASENVGSYVSWYQQKPEKSPKLLIYGASNRYTGVPDRFTGSGSATDFTLTISSVQAEDLADYHCGQSYSYPLTFGAGTKLELKR	binds	binds	no binding	–	–	binding result [2]: no binding (tested: 2.5 µg of antibody); binding result [5]: binds; Kd [7]: 49.6 nM; EC50 [8]: 0.337 nM
v12592 (antibody, human IgG1, lambda, Control monospecific bivalent anti-4-1BB antibody, Het Fc; clones 2871, 4667, 2872; also called MOR7480.1-IG1; MOR7480.1) heavy 1: EVQLVQSGAEVKKPGESLRISCKGSGYSFSTYWISWVRQMPGKGLEWMGKIYPGDSYTNYSPSFQGQVTISADKSISTAYLQWSSLKASDTAMYYCARGYGIFDYWGQGTLVTVSSASTKGPSVFPLAPCSRSTSESTAALGCLVKDYFPEPVTVSWNSGALTSGVHTFPAVLQSSGLYSLSSVVTVPSSNFGTQTYTCNVDHKPSNTKVDKTVEPKSCDKTHTCPPCPAPELLGGPSVFLFPPKPKDTLMISRTPEVTCVVVDVSHEDPEVKFNWYVDGVEVHNAKTKPREEQYNSTYRVVSVLTVLHQDWLNGKEYKCKVSNKALPAPIEKTISKAKGQPREPQVYVYPPSRDELTKNQVSLTCLVKGFYPSDIAVEWESNGQPENNYKTTPPVLDSDGSFALVSKLTVDKSRWQQGNVFSCSVMHEALHNHYTQKSLSLSPGK heavy 2: not shown light: SYELTQPPSVSVSPGQTASITCSGDNIGDQYAHWYQQKPGQSPVLVIYQDKNRPSGIPERFSGSNSGNTATLTISGTQAMDEADYYCATYTGFGSLAVFGGGTKLTVLGQPKAAPSVTLFPPSSEELQANKATLYCLISDFYPGAVTVAWKADSSPVKAGVETTTPSKQSNNKYAASSYLSITPEQWKSHRSYSCQVTHEGSTVEKTVAPTECS	–	binds	–	–	–	–
v20020 (antibody, V domains shown, Mouse-human chimera: mouse VH on human CH1-hinge-CH2-CH3 (IgG1), mouse VL on human kappa CL; also called 1B2) VH: QVQLQQPGAELVKPGASVKLSCKASGYTFTSFWINWVKQRPGQGLEWIGNIYPDSSSTNYNEKFKNKATLTVDTSSSTAYMQLSSLTSDDSAVYFCARSLTFDYWGQGTTLTVSS VL: DVVMTQTPLSLPVSLGDQASISCRSSQSIVHSNGNTYLEWYLQKPGQSPKLLIYKVSNRFSGVPDRFSARGSGTDFSLKISRVEAEDLGVYYCFQGSHVPYTFGGGTKLEIK	–	no binding	no binding	–	–	–
v20031 (antibody, human IgG1, kappa, L234A L235A, V domains shown, Mouse-human chimera; also called 4B11; printed as 4B1) VH: QVQLQQSGPELVKPGASVKISCKASGYVFSSYWMNWVKQRPGKGLEWIGRIYPGNGDTNYNGKFKDKATLTADKFSSTAYMQLSNLTSEDSAVYFCASYYELDYWGQGTSVTVSS VL: DVVMTQTPLSLPVSLGDQASISCRSSQSLVHSNGNTYLHWYLQKPGQSPKLLIYKVSNRFFGVPDRFSGSGSGTDFTLKISRVEAEDLGVYFCSQTTYVPLTFGAGTKLELKR	–	no binding	no binding	–	–	–
v20036 (antibody, human IgG1, kappa, L234A L235A, V domains shown, Mouse-human chimera; also called 5G8; 5G8 mouse-human parental chimera) VH: QVQLQESGPGLVQPTQSLSITCTVSGFSLISYGVHWVRQSPGKGLEWLGVIWSGGSTDYNAAFISRLSISKDNSKSQVFFKMNSLQADDTAIYYCARNPLTATVMDYWGQGTSVTVSS VL: DIVMTQSQKFMSTSVGDRVSVTCKASQNVGTNVAWYQQKPGQSPKALIYSASYRDSGVPDRFTGSGSGTDFTLTISNVQSEDLAEYLCQQYNSYPLTFGAGTKLELKR	binds	–	no binding	–	–	binding result [2]: no binding (tested: 2.5 µg of antibody); binding result [5]: no binding; binding result [6]: binds; Kd [7]: 266 nM; EC50 [8]: 16.9 nM
